This note sets out measurements from patent US8796227B2, “Peptides for inhibiting chemokine binding to chemokine receptors” (Biokine Therapeutics Ltd., priority 2002, dated 2014).

Bridges are numbered along the chain shown (N, C = ends). Where no end group is shown, it is not given here.

The target in one test is T1, Eotaxin (Homo sapiens, UniProt P51671).
T1 construct: purchased PeproTech, Inc. 300-21
Briefly: ELISA analysis of the synthetic chemokine-binding peptide. The following applies: chemokine-coated wells, specific binding = at least two fold of binding to control proteins (BSA, Actin, Fibronectin). On the procedure:
(§1) Recombinant chemokines were ordered from PeproTech, Inc. (Rocky Hill, N.J., USA). Human SDF-1α (Cat. No. 300-28A), human MIG (Cat. No. 300-26) and human IL-8, (72 amino acids) (Cat. No. 200-08M), belong to the alpha-chemokines (C-X-C) family. Human MCP-1 (MCAF) (Cat. No. 300-04) and human Eotaxin (Cat No. 300-21) belong to the beta-chemokines (C-C family). All chemokines were prepared according to the company recommendations.
(§2) Peptides were synthesized in the Weizmann Institute of Science, Rehovot, Israel, in order to perform tests for characterization of their influence on the biological activity of the chemokines. The format of the various synthesized peptides was as follows: The cyclic peptides, ACX7CGGGSK-biotin-G and the linear peptides, X12GGGSK-biotin-G. The peptides were biotinylated on their C-termini; the biotin will serve as a detector during the following experiments. Each synthetic peptide was dissolved to concentration of 1 mg/ml (˜0.6 mM) in 4% DMSO (Dimethyl Sulphoxide, Sigma, Cat. # D-2650).
(§3) NUNC-Immuno™ MaxiSorp™ plates (Cat. No. 4-42404) were coated with the appropriate chemokine (0.1 ml/well, 0.1-1.0 μg/ml in 0.1 M NaHCO3, pH 8.6), overnight at 4° C. The plates were then blocked with 0.2 ml/well of blocking buffer (5 mg/ml BSA in 0.1 NaHCO3). Control wells were treated with blocking buffer alone, with no addition of target protein (chemokine). The plates were washed 6 times with PBST (0.1% Tween 20 in PBS), followed by incubation for 45 minutes at room temperature with 10-fold serial dilutions of individual synthetic peptides (10pg-10 μg) with 1% BSA (PBST-BSA)/well. After the plates were washed 6 times with PBST, the bound peptides were probed by HRP-SA Conjugate, diluted 1:10,000 to 1:20,000 in PBST-BSA, 0.1 ml/well for 45 minutes at room temperature. The target-bound synthetic peptides probed with HRP-SA were quantified by DAKO TMB one-step substrate system, followed by the addition of stop solution, HCl—H2SO4 mixture (0.1 ml/well) (1N HCl, 3N H2SO4). The results were analyzed by ELISA reader at OD450.
(§4) The present invention identifies chemokine-binding peptides with biological activity. The binding specificities of the various peptides to the chemokines were determined by screening against BSA, Actin and Fibronectin-coated wells as negative controls in parallel experiments. The binding level of the peptides to the various chemokines, which reached at least two fold of the binding level to the control proteins, was considered a specific binding.
(§5) The specific binding of the peptides was detected by screening methodology, using ELISA, as described in “Materials and Methods”, employing microplates coated with the various chemokines to be checked. The binding specificities of the various peptides to the various chemokines were determined by screening against BSA, Actin and Fibronectin-coated wells as negative controls in parallel experiments.
(§6) Again, the specificity of the binding, either to one chemokine or more, was established by comparing binding level with the control binding level to non-related proteins, (shown in the Figure as a broken line).
(In general: In an ELISA, binding on a coated surface is turned into a signal by an enzyme label.)

For the next test, the target named is T2, Human MCP-1 (Homo sapiens, UniProt P13500).
T2 construct: purchased PeproTech, Inc. 300-04
Described as above. As to conditions: chemokine-coated wells, specific binding = at least two fold of binding to control proteins (BSA, Actin, Fibronectin). On the procedure: as §1, §2, §3, §4, §5, §6

Another test has as its target T3, SDF-1α (Homo sapiens, UniProt P48061).
T3 construct: purchased PeproTech, Inc. 300-28A
The description is as above. As to conditions: chemokine-coated wells, specific binding = at least two fold of binding to control proteins (BSA, Actin, Fibronectin). On the procedure: as §1, §2, §3, §4, §5, §6

Test [1] relates to chemokines MCP-1, SDF-1α, MIG, Eotaxin and IL-8. Description: ELISA binding to the panel of chemokines (chemokine not singled out). More on the design: species or system human. The following applies: five chemokines tested, control binding level = one fold. On the procedure: as §1, §2, §3
The present invention identifies chemokine-binding peptides with biological activity. The binding specificities of the various peptides to the chemokines were determined by screening against BSA, Actin and Fibronectin-coated wells as negative controls in parallel experiments. […]
The specific binding of the peptides was detected by screening methodology, using ELISA, as described in “Materials and Methods”, employing microplates coated with the various chemokines to be checked. The binding specificities of the various peptides to the various chemokines were determined by screening against BSA, Actin and Fibronectin-coated wells as negative controls in parallel experiments. […]

The target in the next test is T4, human IL-8 (Homo sapiens, UniProt P10145).
T4 construct: human IL-8, (72 amino acids) (Cat. No. 200-08M); purchased PeproTech, Inc. 200-08M
T4 sequence (P10145 28-99 limits assumed): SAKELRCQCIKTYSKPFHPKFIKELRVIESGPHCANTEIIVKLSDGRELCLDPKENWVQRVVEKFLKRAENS
Description: ELISA analysis of the synthetic chemokine-binding peptide. As to conditions: chemokine-coated wells, specific binding = at least two fold of binding to control proteins (BSA, Actin, Fibronectin). The procedure: as §1, §2, §3, §4, §5, §6

Test [2] deals with T5, MIG (Homo sapiens, UniProt Q07325).
T5 construct: purchased PeproTech, Inc. 300-26
T5 sequence (Q07325 23-125): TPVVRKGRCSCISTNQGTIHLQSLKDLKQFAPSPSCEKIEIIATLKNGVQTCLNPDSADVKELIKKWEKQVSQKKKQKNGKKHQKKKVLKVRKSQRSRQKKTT
Briefly: Biovalidation: laminar flow assay, chemokine and VCAM-1 activated adhesion of T cells. In kind it is cell-based. As to conditions: VCAM-1; for Level of Antagonistic Effect: Chemokine checked MIG, T cells, peptide 10 μg/ml; for Reduction of the activity of MIG: T cell adhesion under flow. On the procedure: 50 ml blood was added to 10 ml Dextran (Dextran T-500 6% w/v) in PBS (phosphate buffer saline), and 7 ml citrate buffer (25 g citrate, 8 g citric acid in 500 ml PBS). The solution was incubated for 30 min at 25° C. 10 ml Ficoll 1077 (Sigma) was added to the bottom of the tube. The tube was then centrifuged at 2,000 rpm for 30 min, at 18° C., (with the brake mode of the centrifuge off). The interphase was collected and washed twice with 8 ml PBS-5% FCS (fetal calf serum), followed by centrifugation at 1,400 rpm, for 5 min, at 18° C. The cells were re-suspended in PBS-5% FCS at a concentration less than 10^8/ml. 2 ml of the cell solution were applied and incubated for 45 min at 25° C. on a Perspex Nylon wool column, which was pre-soaked with PBS-5% FCS. Each column was washed with 8 ml PBS-5% FCS and the cells (T-cells and erythrocytes) were eluted by 50 ml of 5 mM EDTA in PBS. A red pellet was obtained by centrifugation at 1,400 rpm, at 4° C., for 5 min, with the brake on. In order to perform lysis of the erythrocytes, the red pellet was re-suspended in 5 ml lysis-buffer (155 mM NH4Cl, 10 mM KHCO3, 0.1 mM EDTA, X0.1PBS) for 4 min, followed by immediate addition of 50 ml of PBS-EDTA.
Following centrifugation at 1,400 rpm, at 4° C., for 5 min with brake on, the pellet was washed again with 50 ml PBS-EDTA and re-centrifuged under the same conditions. A white pellet was obtained and re-suspended in RPMI/10% FCS/L-glutamine/sodium pyruvate/antibiotics at a concentration of 3^X10^6 cells/ml. The cells were incubated for 2 h at 37° C., followed by collection of the non-adherent cells. The cells were ready for use in experiments after overnight incubation at 37° C. […]
Laminar flow assays were performed as follows. Polystyrene plates (B.D) were coated with soluble VCAM-1 at 10 μg/ml in the presence of 2 μg/ml HSA carrier. The plates were washed three times with PBS and blocked with HSA (20 μg/ml in PBS) for 2 hrs at room temperature. Alternatively, washed plates were coated with 10 μg/ml MIG chemokine in PBS for 30 min at room temperature, before being blocked with HSA. The plates were assembled as the lower wall of a parallel wall flow chamber and mounted on the stage of an inverted microscope. The peptide, as described previously, (10 μg/ml) was allowed to settle on the substrate coated chamber wall for 10 min, at 37° C. and then washed. T cells (5×10^6/ml, purity >98%) were suspended in binding buffer, perfused into the chamber and allowed to settle on the substrate coated chamber wall for 1 min, at 37° C. Flow was initiated and increased in 2 to 2.5 fold increments every 5 sec. generating controlled shear stresses on the wall. Cells were visualized in a 20× objective of an inverted phase-contrast Diaphot Microscope (Nikon, Japan) and photographed with a long integration LIS-700 CCD video camera (Applitech; Holon, Israel), connected to a video recorder (AG-6730 S-VHS, Panasonic, Japan). The number of adherent cells resisting detachment by the elevated shear forces was determined after each interval by analysis of videotaped cell images, and was expressed as the percent of originally settled cells. All adhesion experiments were performed at least three times on multiple test fields.

Test [3] deals with T5, MIG. Briefly: ELISA analysis of the synthetic chemokine-binding peptide. The following applies: chemokine-coated wells, specific binding = at least two fold of binding to control proteins (BSA, Actin, Fibronectin). On the procedure: as §1, §2, §3, §4, §5, §6
In a further test the target is T6, IL-8 (Homo sapiens, UniProt P10145).
T6 construct: human IL-8, (72 amino acids) (Cat. No. 200-08M); purchased PeproTech, Inc. 200-08M
T6 sequence (P10145 28-99): T4 sequence (P10145 28-99 limits assumed)
Briefly: Biovalidation: laminar flow assay, chemokine and VCAM-1 activated adhesion of T cells. As to conditions: VCAM-1. In kind it is cell-based.

T1 sequence (P51671 24-97): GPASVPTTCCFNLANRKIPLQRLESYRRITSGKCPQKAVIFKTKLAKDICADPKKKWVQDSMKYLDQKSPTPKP
T2 sequence (P13500 24-99): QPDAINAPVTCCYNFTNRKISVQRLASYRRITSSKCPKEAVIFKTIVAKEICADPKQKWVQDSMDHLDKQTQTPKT
T3 sequence (P48061 22-89 limits assumed): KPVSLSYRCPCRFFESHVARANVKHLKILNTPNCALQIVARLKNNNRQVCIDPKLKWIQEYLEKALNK

SVQTRPLFHSHF [BKT-P34]: the “Bound chemokines (at least): Eotaxin” value in the test with Eotaxin was “Eotaxin”.
Consider LDYPIPQTVLHH [BKT-P46], for which the “Bound chemokines (at least): MCP-1” value in the test with Human MCP-1 is recorded as “MCP-1”.
Regarding CHHNLSWEC [BKT-P56], the “Bound chemokines (at least): SDF-1α” value with SDF-1α is on record as “SDF-1α”.
In the case of “CKESATYFC (ACKESATYFCGGGS-{K(biotin)-Gly}; disulfide 2-10 (inferred)) [BKT-P18]”, the “Binding to the various chemokines” value in test [1] is given as “no binding to the various chemokines”.
Take WSAHIVPYSHKP [BKT-P52]: the “Bound chemokines (at least): MCP-1” value with Human MCP-1 was “MCP-1”.
Consider HHTWDTRIWQAF [BKT-P55], for which the “Bound chemokines (at least): MCP-1” value in the test with Human MCP-1 is “MCP-1”.
Take SFWHHHSPRSPL [BKT-P31]: the “Bound chemokines (at least): Eotaxin” value in the test with Eotaxin was “Eotaxin”.
As for TRLVPSRYYHHP [BKT-P47], the “Bound chemokines (at least): MCP-1” value in the test with Human MCP-1 is listed as “MCP-1”.
SAISDHRAHRSH [BKT-P40]: in the test with human IL-8, the “Bound chemokines (at least): IL-8” value is listed as “IL-8”.
For the sequence SIPSHSIHSAKA [BKT-P2], in the test with MIG [2], the “Level of Antagonistic Effect” value is reported as “++ (++ 50%)” and the “Reduction of the activity of MIG” value was “about 50%”. For the same sequence, the “Bound chemokines (at least): IL-8” value with human IL-8 is “IL-8”. Also, in the test with Eotaxin, the “Bound chemokines (at least): Eotaxin” value was “Eotaxin”. Besides, in the test with Human MCP-1, the “Bound chemokines (at least): MCP-1” value was “MCP-1,”.
On to GVHKHFYSRWLG [BKT-P33], for which, in the test with Eotaxin, the “Bound chemokines (at least): Eotaxin” value was “Eotaxin”.
As to HSACHASLKHRC [BKT-P49], the “Bound chemokines (at least): MCP-1” value in the test with Human MCP-1 is given as “MCP-1”.
For HHFHLPKLRPPV [BKT-P45], in the test with MIG [2], the “Level of Antagonistic Effect” value is “+ (+ 20%)” and the “Reduction of the activity of MIG” value is on record as “about 20%”. For the same sequence, in the test with human IL-8, the “Bound chemokines (at least): IL-8” value is given as “IL-8”. In addition, the “Bound chemokines (at least): MIG” value in the test with MIG [3] is given as “MIG”. Also, the “Bound chemokines (at least): MCP-1” value with Human MCP-1 is on record as “MCP-1”. Further, the “Level of Antagonistic Effect” value with IL-8 (Chemokine checked IL-8, T cells, peptide 10 μg/ml) is given as “+++ (+++ 100%)”. In addition, the “Abolishment of the activity of IL-8” value with IL-8 (T cell adhesion under flow) is 100%.
